What all share (assay): BRET (mG protein recruitment) in HEK293 cells
In general terms: Bioluminescence resonance energy transfer reports proximity on the nanometre scale.

The target of one assay is Venus-tagged mGs. The conditions noted are these: highest WNT-5A concentration shown (about log 2.5-3 ng/ml); n = 8; mean ± s.e.m.; parent: est. 100.1; read off a plot.
Another assay deals with Venus-tagged mGsq. The conditions noted are these: highest WNT-5A concentration shown (about log 3 ng/ml); n = 5; mean ± s.e.m.; parent: est. 101; read off a plot.
For the next assay, the target named is Venus-tagged mG13. The conditions noted are these: n = 6, mean ± s.e.m., read off a plot.
The target in a further assay is Venus-tagged mGsi. The conditions noted are these: mean ± s.e.m., read off a plot.

Take “SNAP-FZD7-Rluc8 (from UniProt O75084) R470A”: the response with Venus-tagged mGs is 102 % of vehicle. As to “SNAP-FZD5-Rluc8 (from UniProt Q13467) R449A”, the response with Venus-tagged mGsq was 103 % of vehicle. On to hFZD4-Nluc (from UniProt Q9ULV1) K436A, for which the response is 106 % of vehicle with Venus-tagged mG13 (highest WNT-5A concentration shown (about log 3-3.5 ng/ml), parent: est. 105.5) and 103 % of vehicle in the assay with Venus-tagged mG13 (second-highest WNT-5A concentration shown (about log 2.5 ng/ml), parent: est. 100.0). As for “mouse SMO-Rluc8 (from UniProt P56726) R455A”, in the assay with Venus-tagged mGsi (SAG alone, at the peak of the bell-shaped curve (about log -9.5 M), n = 6, parent: est. 100.9), the response is 102 % of vehicle. In the case of “SNAP-FZD6-Rluc8 (from UniProt O60353) R416A”, in the assay with Venus-tagged mGsi (highest WNT-5A concentration shown (about log 3.5 ng/ml), wild type n = 7, R416A n = 6, parent: est. 104), the response is 109 % of vehicle.

Values taken from publication PMC6368630.
